Reference: the supplement of paper PMC7877785
± gives the uncertainty stated by the source.

Test: self-splicing fitness, log relative to wild type (ln ratio); higher = more splicing; Tetrahymena group I intron in knt gene, E. coli kanamycin selection, DiMSum; sequences stand for … in CUCUCU…GGAGGGAAAAGUUAUCAGGCAUGCACCUGGUAGCUAGUCUUUAAACCAAUAGAUUGCAUCGGUUUAAAAGGCAAGACCGUCAAAUUGCGGGAAAGGGGUCAACAGCCGUUCAGUACCAAGUCUCAGGGGAAACUUUGAGAUGGCCUUGCAAAGGGUAUGGUAAUAAGCUGACGGACAUGGUCCUAACCACGCAGCCAAGUCCUAAGUCAACAGAUCUUCUGUUGAUAUGGAUGCAGUUCACAGACUAAAUGUCGGUCGGGGAAGAUGUAUUCUUCUCAUAAGAUAUAGUCGGACCUCUCCUUAAUGGGAGCUAGCGGAUGAAGUGAUGCAACACUGGAGCCGCUGGGAACUAAUUUGUAUGCGAAAGUAUAUUGAUUAGUUUUGGAGUACUCGUGGUCG
How it was run: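 Library with all eight P1ex-region intron nucleotides randomised, intron inside the knt kanamycin-resistance gene on pET-22b(+), in E. coli BL21(DE3). Cells grew overnight at 37°C or 30°C on LB agar with or without 25 μg/mL kanamycin (plus 100 μg/mL carbenicillin, 50 μM IPTG, 0.2% rhamnose), in six replicate transformations. Pooled colonies were amplicon-sequenced on Illumina HiSeq 2500. DiMSum fitness is the error-weighted combination of wild-type-normalised replicate fold changes, kanamycin versus none.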

| Sequence | self-splicing fitness (ln) (30 °C) | self-splicing fitness (ln) (37 °C) |
| --- | --- | --- |
| AGUGAGCAAUAUUACGUAAG | -3.1 ± 0.43 | -2.48 ± 0.41 |
| AGUGAGCAAUAUUACGUAGG | -4.29 ± 0.46 |  |
| AGUGAGCAAUAUUACGUAGU | -4.14 ± 0.26 | -2.82 ± 0.26 |
| AGUGAGCAAUAUUACGUAUG |  | -2.56 ± 0.32 |
| AGUGAGCAAUAUUACGUCAA | -0.971 ± 0.2 | -2.79 ± 0.36 |
| AGUGAGCAAUAUUACGUCAU | -1.29 ± 0.14 | -2.29 ± 0.22 |
| AGUGAGCAAUAUUACGUCCU | 0.0407 ± 0.17 | 0.233 ± 0.18 |
| AGUGAGCAAUAUUACGUGGC |  | -1.94 ± 0.33 |
| AGUGAGCAAUAUUACGUUCA | -3.1 ± 0.38 | -2.41 ± 0.37 |
| AGUGAGCAAUAUUACGUUCU | -1.78 ± 0.15 | -1.57 ± 0.14 |
| AGUUAGCAAUAUUACGAACC | -1 ± 0.15 | -0.401 ± 0.17 |
| AGUUAGCAAUAUUACGACGU | 0.261 ± 0.07 | 0.647 ± 0.083 |
| AGUUAGCAAUAUUACGACUC | -2.36 ± 0.32 | -1.83 ± 0.38 |
| AGUUAGCAAUAUUACGAGGU | -3.43 ± 0.16 | -1.55 ± 0.17 |
| AGUUAGCAAUAUUACGAGUA | -2.73 ± 0.17 | -1.64 ± 0.13 |
| AGUUAGCAAUAUUACGCCGG | -2.98 ± 0.34 | -2.26 ± 0.39 |
| AGUUAGCAAUAUUACGCGUC | -3.11 ± 0.48 | -0.621 ± 0.33 |
| AGUUAGCAAUAUUACGCGUU | -1.32 ± 0.12 | -0.816 ± 0.15 |
| AGUUAGCAAUAUUACGGAGA | -1.99 ± 0.27 | -2.86 ± 0.48 |
| AGUUAGCAAUAUUACGGCUC | -3.53 ± 0.26 | -2.46 ± 0.34 |
| AGUUAGCAAUAUUACGGGGU | -3.76 ± 0.46 | -2.61 ± 0.33 |
| AGUUAGCAAUAUUACGGUAG | -3.77 ± 0.3 | -2.11 ± 0.34 |
| AGUUAGCAAUAUUACGGUGA | -1.43 ± 0.13 | -1.13 ± 0.21 |
| AGUUAGCAAUAUUACGGUUA | -1.54 ± 0.12 | -0.607 ± 0.087 |
| AGUUAGCAAUAUUACGUAAG | -2.42 ± 0.21 | -0.816 ± 0.27 |
| AGUUAGCAAUAUUACGUAGU | -2.77 ± 0.17 | -1.94 ± 0.17 |

| Sequence | self-splicing fitness (ln) (30 °C) | self-splicing fitness (ln) (37 °C) |
| --- | --- | --- |
| AGUUAGCAAUAUUACGUAUU | -2.02 ± 0.1 | -1.04 ± 0.11 |
| AGUUAGCAAUAUUACGUCCA | -0.989 ± 0.16 | -0.0648 ± 0.18 |
| AGUUAGCAAUAUUACGUCCC | -0.148 ± 0.21 | -0.452 ± 0.2 |
| AGUUAGCAAUAUUACGUCCU | 0.147 ± 0.09 | 0.0687 ± 0.091 |
| AGUUAGCAAUAUUACGUGAC | -2.66 ± 0.24 | -2.9 ± 0.33 |
| AGUUAGCAAUAUUACGUGAU | -3.08 ± 0.21 | -1.19 ± 0.18 |
| AGUUAGCAAUAUUACGUGCA | -1.6 ± 0.14 | -0.22 ± 0.15 |
| AGUUAGCAAUAUUACGUGUG | -3.18 ± 0.15 | -1.8 ± 0.13 |
| AGUUAGCAAUAUUACGUGUU | -3.25 ± 0.15 | -1.52 ± 0.14 |
| AUAAAGCAAUAUUACGACAC | -0.305 ± 0.11 | -0.252 ± 0.13 |
| AUAAAGCAAUAUUACGAGAC | -2.89 ± 0.17 | -1.63 ± 0.19 |
| AUAAAGCAAUAUUACGAGAU | -2.31 ± 0.11 | -1.22 ± 0.12 |
| AUAAAGCAAUAUUACGAGCA | -0.252 ± 0.074 | -0.299 ± 0.082 |
| AUAAAGCAAUAUUACGAUAU | -0.0773 ± 0.088 | 0.168 ± 0.1 |
| AUAAAGCAAUAUUACGAUUG | -2.38 ± 0.14 | -1.14 ± 0.16 |
| AUAAAGCAAUAUUACGCAAA | -1.01 ± 0.1 | -1.03 ± 0.14 |
| AUAAAGCAAUAUUACGCAGU | -1.89 ± 0.11 | -0.968 ± 0.096 |
| AUAAAGCAAUAUUACGCAUC | -3.37 ± 0.26 | -1.74 ± 0.3 |
| AUAAAGCAAUAUUACGCCCA | 0.167 ± 0.18 | -0.307 ± 0.23 |
| AUAAAGCAAUAUUACGGAUA | -1.7 ± 0.11 | -0.75 ± 0.11 |
| AUAAAGCAAUAUUACGGCGU | 0.632 ± 0.068 | 0.894 ± 0.1 |
| AUAAAGCAAUAUUACGGGUC | -3.45 ± 0.19 | -1.25 ± 0.15 |
| AUAAAGCAAUAUUACGGUGU | -1.25 ± 0.068 | -0.672 ± 0.082 |
| AUAAAGCAAUAUUACGUACC | 0.0438 ± 0.19 | -0.16 ± 0.4 |
| AUAAAGCAAUAUUACGUCAU | -0.954 ± 0.056 | -0.228 ± 0.083 |
| AUAAAGCAAUAUUACGUGGU | -2.45 ± 0.094 | -1.64 ± 0.1 |

| Sequence | self-splicing fitness (ln) (30 °C) | self-splicing fitness (ln) (37 °C) |
| --- | --- | --- |
| AUAAAGCAAUAUUACGUGUU | -2.97 ± 0.071 | -1.11 ± 0.068 |
| AUAAAGCAAUAUUACGUUGU | -2.65 ± 0.11 | -1.9 ± 0.11 |
| AUACAGCAAUAUUACGACUU | -0.367 ± 0.065 | 0.271 ± 0.081 |
| AUACAGCAAUAUUACGAGAC | -4.95 ± 0.41 | -1.82 ± 0.18 |
| AUACAGCAAUAUUACGAUAU | -1.45 ± 0.092 | -0.42 ± 0.1 |
| AUACAGCAAUAUUACGAUCC | -0.368 ± 0.12 | -1.59 ± 0.15 |
| AUACAGCAAUAUUACGCAAC | -2.13 ± 0.16 | -1.49 ± 0.15 |
| AUACAGCAAUAUUACGCCCA | -0.142 ± 0.1 | -0.545 ± 0.14 |
| AUACAGCAAUAUUACGCGUU | -3.01 ± 0.14 | -0.461 ± 0.099 |
| AUACAGCAAUAUUACGCUAC | -2.36 ± 0.35 |  |
| AUACAGCAAUAUUACGCUGG | -2.29 ± 0.13 | -2.76 ± 0.25 |
| AUACAGCAAUAUUACGGACC | -0.965 ± 0.21 | -1.07 ± 0.26 |
| AUACAGCAAUAUUACGGAUC | -3.54 ± 0.23 | -2.53 ± 0.23 |
| AUACAGCAAUAUUACGGGGG | -3.43 ± 0.25 | -2.84 ± 0.25 |
| AUACAGCAAUAUUACGGGGU | -3.29 ± 0.13 | -1.69 ± 0.093 |
| AUACAGCAAUAUUACGGUGC | -3.65 ± 0.19 | -1.74 ± 0.16 |
| AUACAGCAAUAUUACGUAAC | -3.13 ± 0.11 | -1.25 ± 0.077 |
| AUACAGCAAUAUUACGUGAU | -2.14 ± 0.084 | -0.569 ± 0.089 |
| AUACAGCAAUAUUACGUGUC | -4.39 ± 0.14 | -2.67 ± 0.13 |
| AUACAGCAAUAUUACGUUGC | -4.31 ± 0.28 | -2.21 ± 0.35 |
| AUACAGCAAUAUUACGUUGG | -3.51 ± 0.14 | -2.87 ± 0.16 |
| AUAGAGCAAUAUUACGAAAA | -1.06 ± 0.3 | -1.85 ± 0.35 |
| AUAGAGCAAUAUUACGAGAU | -0.944 ± 0.27 | -1.72 ± 0.4 |
| AUAGAGCAAUAUUACGAGCG | -2.43 ± 0.21 | -1.07 ± 0.22 |
